For 2 substances, polypeptide chains in the complex (peak A, 395aa/410aa and truncated variants together) (polypeptide chains) and stoichiometry N (polypeptide chains) results are on record in publication PMC3463529.

What all share (assay): SEC; Superose12 10/300 GL, lysis buffer for native purification, 0.4 ml/min; concentrated Ni2+-NTA eluate of GFP-perlucin (~20 mg/ml); peak fractions analysed by SDS-PAGE; sizes estimated against gel filtration standards (12 kDa - 2 MDa)
The target in assay [1] is His-tagged GFP-perlucin derivative lacking 15 C-terminal amino acids (395 amino acids, 45 kDa) (Aequorea victoria | Haliotis laevigata) (UniProt P82596).
Assay [2] concerns the target full length His-tagged GFP-perlucin (410 amino acids, 46.8 kDa) (Aequorea victoria | Haliotis laevigata) (UniProt P82596).
Assay [3] addresses truncated His-tagged GFP-perlucin lacking 141 C-terminal amino acids (Aequorea victoria | Haliotis laevigata) (UniProt P82596).
In assay [4] the target is truncated His-tagged GFP-perlucin lacking 145 C-terminal amino acids (Aequorea victoria | Haliotis laevigata) (UniProt P82596).

For “truncated His-tagged GFP-perlucin lacking 141 C-terminal amino acids (from UniProt P82596 1-14)”, the polypeptide chains in the complex (peak A, 395aa/410aa and truncated variants together) (polypeptide chains) in assay [1] and in assay [2] was 50 each time. The stoichiometry N (polypeptide chains) in assay [3] was 3 to 5.

Take “truncated His-tagged GFP-perlucin lacking 145 C-terminal amino acids (from UniProt P82596 1-10)”: the polypeptide chains in the complex (peak A, 395aa/410aa and truncated variants together) (polypeptide chains) in assay [1] and in assay [2] was 50 each time. Moreover, the stoichiometry N (polypeptide chains) in assay [4] was 3 to 5.
